Among the targets are FcγRI (UniProt P12314); FcγRIIb (UniProt P31994); FcγRIIaH (UniProt P12318); FcγRIIaR (UniProt P12318).
Holding throughout (assay): SPR Biacore, Ab on HER2 chip

FcγRIIb, sequence (P31994 43-217 limits assumed): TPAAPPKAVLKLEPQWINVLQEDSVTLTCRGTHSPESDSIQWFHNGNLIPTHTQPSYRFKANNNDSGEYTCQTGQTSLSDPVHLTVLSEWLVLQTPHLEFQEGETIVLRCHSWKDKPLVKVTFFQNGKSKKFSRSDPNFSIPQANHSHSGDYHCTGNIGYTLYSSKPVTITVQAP
FcγRI, sequence (P12314 16-292 limits assumed): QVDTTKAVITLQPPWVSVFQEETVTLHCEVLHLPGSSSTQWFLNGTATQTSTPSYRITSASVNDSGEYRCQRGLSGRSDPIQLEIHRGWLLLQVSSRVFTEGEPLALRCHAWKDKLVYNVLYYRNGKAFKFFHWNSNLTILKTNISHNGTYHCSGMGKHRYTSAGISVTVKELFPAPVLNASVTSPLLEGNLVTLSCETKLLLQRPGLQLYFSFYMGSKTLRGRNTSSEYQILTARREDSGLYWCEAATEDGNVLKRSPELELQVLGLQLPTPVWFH
FcγRIIaH, sequence (P12318 34-217 limits assumed): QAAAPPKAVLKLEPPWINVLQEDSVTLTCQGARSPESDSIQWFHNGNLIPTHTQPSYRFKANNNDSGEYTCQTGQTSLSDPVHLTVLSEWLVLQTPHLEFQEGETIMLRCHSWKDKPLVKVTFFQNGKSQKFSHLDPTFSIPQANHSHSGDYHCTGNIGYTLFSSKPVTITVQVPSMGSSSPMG
FcγRIIaR, sequence (P12318 34-217 H167R limits assumed): as the sequence (P12318 34-217 limits assumed) above, with H134R counted along it

B1: one-armed trastuzumab antibody, Scaffold 9, variant v27319 (L242C_I336C/V308I) (antibody, part only; not given: Trastuzumab Fab arm, not shown: another chain or arm of the molecule)
Fc 1: APEFLNGPSVFCFPPKPKDTLMISRTPEVTCVVVDVSQEDPEVKFNWYVDGVEVHNAKTKPREEQYNSTYRVVSVLTILHQDWLNGKEYKCKVSNKGLPKSIEKTCSKAKGQPREPQVYVYPPSRDELTKNQVSLTCLVKGFYPSDIAVEWESNGQPENNYKTTPPVLDSDGSFALVSKLTVDKSRWQQGNVFSCSVMHEALHNHYTQKSLSLSPGK
Fc 2: APELLDGPDVFCFPPKPKDTLMISRTPEVTCVVVDLADEDPEVKFNWYVDGVEVHNAKTKPREEQYNSTYRVVSVLTILHQDWLNGKEYKCKVSNKALPAPIEKTCSKAKGQPREPQVYVLPPSRDELTKNQVSLLCLVKGFYPSDIAVEWESNGQPENNYLTWPPVLDSDGSFFLYSKLTVDKSRWQQGNVFSCSVMHEALHNHYTQKSLSLSPGK
modifications: Engineered intrachain disulphide C242-C336 in each Fc chain.
A word on the Kd: it is a measure of binding affinity in units of concentration. In the case of B1, the Kd with FcγRI was 0.532 nM; in the experiment with FcγRIIb, 15.5 nM; with FcγRIIaH, 575 nM; with FcγRIIaR, 61.4 nM.

For the origin of these results see US20230303715A1.
